Paper PMC8896826, “Cellular assays identify barriers impeding iron-sulfur enzyme activity in a non-native prokaryotic host” (eLife, 2022)

Target: T1, tryptophan 2-C-methyltransferase (TsrM) from Streptomyces laurentii (Streptomyces laurentii, UniProt C0JRZ9 1-599)
T1 construct: TsrM, tryptophan 2-C-methyltransferase of the thiostrepton synthesis pathway, Streptomyces laurentii; As purified it holds 0.9 cobalamin and 3.5 Fe per monomer ([4Fe-4S] cluster); The methods describe no TEV cleavage for TsrM, so the His-tag was probably still on the protein; also called cobalamin-dependent rSAM methyltransferase TsrM; source: E. coli BL21(DE3), coexpressed with the Btu operon, …
T1 sequence (looked up): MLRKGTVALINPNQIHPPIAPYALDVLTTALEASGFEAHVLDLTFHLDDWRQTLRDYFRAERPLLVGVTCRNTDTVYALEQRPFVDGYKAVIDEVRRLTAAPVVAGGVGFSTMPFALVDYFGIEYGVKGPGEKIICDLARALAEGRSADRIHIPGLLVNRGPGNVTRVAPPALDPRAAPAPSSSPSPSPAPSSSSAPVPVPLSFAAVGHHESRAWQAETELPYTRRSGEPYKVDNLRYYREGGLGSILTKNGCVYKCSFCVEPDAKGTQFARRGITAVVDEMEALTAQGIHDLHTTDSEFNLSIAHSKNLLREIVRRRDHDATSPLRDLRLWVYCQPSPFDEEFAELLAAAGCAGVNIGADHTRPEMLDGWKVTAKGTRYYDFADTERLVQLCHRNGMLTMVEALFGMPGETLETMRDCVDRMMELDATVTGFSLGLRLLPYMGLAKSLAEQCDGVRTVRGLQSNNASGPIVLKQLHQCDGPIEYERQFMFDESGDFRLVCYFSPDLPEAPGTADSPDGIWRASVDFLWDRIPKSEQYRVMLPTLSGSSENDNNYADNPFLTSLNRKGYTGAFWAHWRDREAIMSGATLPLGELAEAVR
Assay: BLI; biotinylated ferredoxins (10 µg/mL) bound to streptavidin biosensors, plunged into TsrM solution at various concentrations (80 s association, 60 s dissociation); BLItz system in an anaerobic chamber (O2 <2 ppm); 25 mM Hepes pH 7.5, 300 mM KCl, 5% glycerol with Tween 20 and BSA
Details: both partners purified

B1: Streptomyces cattleya ferredoxin Fdx1 (natural protein, UniProt F8K3M7 1-106, looked up)
chain: MTYVIAQPCVDVKDKACIEECPVDCIYEGQRSLYIHPDECVDCGACEPVCPVEAIFYEDDTPEEWKDYYKANVEFFDELGSPGGASKLGLIERDHPFIAALPPQNG
modifications: biotin (incubation with one equivalent of NHS-PEG4-Biotin)
notes: ferredoxin Fdx1 of Streptomyces cattleya, GenBank AEW96347.1; 7.4 Fe atoms per monomer after reconstitution (two [4Fe-4S] clusters); also called double-cluster [4Fe-4S] ferredoxin; not shown: His-tag, N-terminal, cleaved
In the case of B1, the Kd is reported as 40 µM.
